From paper PMC8241133

Target: CD123 peptide epitope (24 aa, extracellular domain, disulfide between the two Cys) (UniProt P26951)
Assay: flow cytometry, peptide-coated magnetic beads
Conditions: PBS (binding buffer), 37 °C, 30 min; BSA-bead signal subtracted for Kd; pH and salt not given

Sequence of UniProt P26951 (P26951 whole entry, the tested form may be a part): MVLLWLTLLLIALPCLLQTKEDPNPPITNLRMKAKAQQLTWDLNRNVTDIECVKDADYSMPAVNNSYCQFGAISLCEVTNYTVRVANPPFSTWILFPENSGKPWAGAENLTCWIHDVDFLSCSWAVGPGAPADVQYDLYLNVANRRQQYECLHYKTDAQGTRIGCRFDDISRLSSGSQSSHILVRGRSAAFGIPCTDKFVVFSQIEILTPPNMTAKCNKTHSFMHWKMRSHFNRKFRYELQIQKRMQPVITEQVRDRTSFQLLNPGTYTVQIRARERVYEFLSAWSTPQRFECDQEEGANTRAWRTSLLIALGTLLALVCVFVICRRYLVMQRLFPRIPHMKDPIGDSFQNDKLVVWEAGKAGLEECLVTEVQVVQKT

Sequence	Kd
TGCGTGTGTACTGTGTCTGGTCCCGTAGCTACTAGCGAACTCCCTGCCTCTTAGGGATTTGGGCGG [CY30]	15.4 nM
TGCGTGTGTAGTGTGTCTGGGCTACATCGATGAGCTGCCTAGGGTCCCTCTTAGGGATTTGGGCGG [ZW25]	29.4 nM
